From publication PMC9073327
Positions count from the first letter of the chain named.

Assays:
CCA1:MBP [1] = biological target: T1, CCA1:MBP (Arabidopsis thaliana, UniProt P92973 1-608); experiment: EMSA
LHY:MBP;WRKY2:HIS = LHY:MBP;WRKY2:HIS (Arabidopsis thaliana;Arabidopsis …, UniProt Q6R0H1;Q9FG77 1-645;1-687, |); experiment: EMSA
LHY:MBP;WRKY10:MYC = LHY:MBP;WRKY10:MYC (Arabidopsis thaliana;Arabidopsis …, UniProt Q6R0H1;Q9LG05 1-645;1-485, |); experiment: EMSA
LHY:MBP [2] = biological target: T2, LHY:MBP (Arabidopsis thaliana, UniProt Q6R0H1 1-645); experiment: EMSA
T2 sequence: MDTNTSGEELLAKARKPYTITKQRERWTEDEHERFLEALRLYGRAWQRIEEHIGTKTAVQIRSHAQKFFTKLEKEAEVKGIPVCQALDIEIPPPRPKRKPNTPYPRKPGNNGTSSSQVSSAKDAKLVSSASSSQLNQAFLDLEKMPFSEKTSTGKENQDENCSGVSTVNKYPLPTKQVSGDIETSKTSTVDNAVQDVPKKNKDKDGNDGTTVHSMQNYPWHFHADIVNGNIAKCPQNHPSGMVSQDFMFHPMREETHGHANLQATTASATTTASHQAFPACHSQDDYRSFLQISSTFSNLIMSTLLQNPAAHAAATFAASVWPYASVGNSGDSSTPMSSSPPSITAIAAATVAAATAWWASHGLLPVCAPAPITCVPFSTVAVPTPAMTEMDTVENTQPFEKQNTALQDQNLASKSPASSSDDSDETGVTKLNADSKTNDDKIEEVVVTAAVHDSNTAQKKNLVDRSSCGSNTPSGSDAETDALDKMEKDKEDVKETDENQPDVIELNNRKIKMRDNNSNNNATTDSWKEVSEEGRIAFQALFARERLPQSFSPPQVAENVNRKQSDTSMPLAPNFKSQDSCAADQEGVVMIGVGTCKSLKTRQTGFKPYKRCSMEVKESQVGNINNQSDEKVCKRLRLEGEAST

CCA1:MBP [3] = biological target: T1, CCA1:MBP; experiment: competition
LHY:MBP [4] = biological target: T2, LHY:MBP; experiment: competition
WRKY10:MYC [5] = biological target: T3, WRKY10:MYC (Arabidopsis thaliana (Col), UniProt Q9LG05 1-485); experiment: EMSA
WRKY2:HIS [6] = biological target: T4, WRKY2:HIS (Arabidopsis thaliana (Col), UniProt Q9FG77 1-687); experiment: EMSA
WRKY10:MYC [7] = biological target: T3, WRKY10:MYC; experiment: competition
WRKY2:HIS [8] = biological target: T4, WRKY2:HIS; experiment: competition

T3 sequence (Q9LG05 whole entry): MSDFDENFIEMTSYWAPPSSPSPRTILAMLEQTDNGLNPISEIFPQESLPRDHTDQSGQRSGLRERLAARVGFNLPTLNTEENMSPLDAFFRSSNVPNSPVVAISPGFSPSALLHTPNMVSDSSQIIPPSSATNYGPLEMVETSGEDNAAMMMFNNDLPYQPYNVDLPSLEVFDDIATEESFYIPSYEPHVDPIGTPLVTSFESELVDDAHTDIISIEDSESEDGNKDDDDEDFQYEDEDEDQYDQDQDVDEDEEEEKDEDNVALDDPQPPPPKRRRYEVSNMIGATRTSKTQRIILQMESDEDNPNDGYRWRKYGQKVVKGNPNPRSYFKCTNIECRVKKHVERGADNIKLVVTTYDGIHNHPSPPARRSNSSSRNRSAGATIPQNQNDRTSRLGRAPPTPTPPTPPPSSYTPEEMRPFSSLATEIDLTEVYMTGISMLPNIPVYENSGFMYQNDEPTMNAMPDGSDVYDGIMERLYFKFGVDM
T1 sequence (P92973 whole entry): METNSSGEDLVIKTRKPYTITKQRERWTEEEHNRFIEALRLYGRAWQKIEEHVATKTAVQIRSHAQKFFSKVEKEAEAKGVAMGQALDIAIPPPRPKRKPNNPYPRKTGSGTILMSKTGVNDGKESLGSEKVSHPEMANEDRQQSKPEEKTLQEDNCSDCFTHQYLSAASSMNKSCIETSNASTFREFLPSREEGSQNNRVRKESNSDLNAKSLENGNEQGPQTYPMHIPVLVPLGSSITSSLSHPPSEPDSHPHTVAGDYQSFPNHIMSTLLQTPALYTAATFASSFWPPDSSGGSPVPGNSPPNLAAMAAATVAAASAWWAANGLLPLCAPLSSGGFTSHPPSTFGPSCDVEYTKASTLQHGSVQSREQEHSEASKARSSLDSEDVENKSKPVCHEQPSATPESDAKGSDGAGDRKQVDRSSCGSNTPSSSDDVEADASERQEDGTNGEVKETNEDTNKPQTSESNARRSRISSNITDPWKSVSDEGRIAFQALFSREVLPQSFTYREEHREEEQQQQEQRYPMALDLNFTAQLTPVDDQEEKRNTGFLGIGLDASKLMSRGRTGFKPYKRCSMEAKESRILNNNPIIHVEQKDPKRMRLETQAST
T4 sequence (Q9FG77 whole entry): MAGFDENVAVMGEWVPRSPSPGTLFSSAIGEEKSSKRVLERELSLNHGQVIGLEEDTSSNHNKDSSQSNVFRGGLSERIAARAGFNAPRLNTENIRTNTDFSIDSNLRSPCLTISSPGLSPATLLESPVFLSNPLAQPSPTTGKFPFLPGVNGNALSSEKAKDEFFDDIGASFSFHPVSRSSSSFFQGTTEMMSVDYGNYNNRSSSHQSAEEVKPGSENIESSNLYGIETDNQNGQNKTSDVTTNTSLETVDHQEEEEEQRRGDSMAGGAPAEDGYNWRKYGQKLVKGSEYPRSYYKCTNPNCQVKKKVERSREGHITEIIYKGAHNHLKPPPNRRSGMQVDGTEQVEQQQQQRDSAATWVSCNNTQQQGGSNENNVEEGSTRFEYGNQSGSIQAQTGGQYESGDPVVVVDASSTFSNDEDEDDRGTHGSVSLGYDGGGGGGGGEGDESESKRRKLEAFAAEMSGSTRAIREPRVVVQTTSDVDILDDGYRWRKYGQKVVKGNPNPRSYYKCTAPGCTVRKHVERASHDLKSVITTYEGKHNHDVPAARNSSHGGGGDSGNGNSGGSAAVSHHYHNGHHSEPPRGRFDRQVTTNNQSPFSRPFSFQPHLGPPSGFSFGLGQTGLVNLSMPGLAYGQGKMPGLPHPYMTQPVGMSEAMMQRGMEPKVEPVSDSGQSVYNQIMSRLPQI
Chain of LHY:MBP;WRKY10:MYC (Q9LG05 whole entry, one chain of several): as the sequence (Q9LG05 whole entry) above
Chain of LHY:MBP;WRKY2:HIS (Q9FG77 whole entry, one chain of several): as the sequence (Q9FG77 whole entry) above

B1: PIF4 M1-box probe (4M1) (dsDNA)
DNA 1: ATCTCCCTCGCTGTAATATCTTTATGCTCCTGTCACT
DNA 2: AGTGACAGGAGCATAAAGATATTACAGCGAGGGAGAT
binding result (CCA1:MBP [1]): binds | binding result (LHY:MBP;WRKY2:HIS): binds | binding result (LHY:MBP;WRKY10:MYC): binds | binding result (LHY:MBP [2]): binds

B2: PIF4 M1-box mutant competitor (4M1 mut) (dsDNA)
DNA 1: B1 DNA 1 with A18T, T19G
DNA 2: B1 DNA 2 with A19C, T20A
binding result (CCA1:MBP [3]): no binding | binding result (LHY:MBP [4]): no binding

B3: PIF4 W1-box probe (4W1) (dsDNA)
DNA 1: CTATAGATGATTGTGATTTGACAAAAACACCCTCAAATCA
DNA 2: TGATTTGAGGGTGTTTTTGTCAAATCACAATCATCTATAG
binding result (WRKY10:MYC [5]): binds | binding result (WRKY2:HIS [6]): binds

B4: PIF4 W1-box mutant competitor (4W1 mut) (dsDNA)
DNA 1: CTATAGATGATTGTGATGGTGTGAAAACACCCTCAAATCA
DNA 2: TGATTTGAGGGTGTTTTCACACCATCACAATCATCTATAG
binding result (WRKY10:MYC [7]): no binding | binding result (WRKY2:HIS [8]): no binding
